The target in assay [1] is T1, PDGFRβ in RIP1-Tag2 mouse tumor tissue (mouse, UniProt P05622 32-1098).
T1 construct: whole, on cells; Endogenous receptor in tissue, seen only by immunostaining; also called PDGFRb (CD140b)
Kind of assay: co-localization of i.v. injected peptide with anti-PDGFRβ immunostaining in RIP1-Tag2 tumor sections. Here is the method:
For immunohistochemistry, frozen slides were pre-incubated with blocking buffer (1×PNB from NEN Biosciences) for one hour, washed several times in 1×PBS and incubated with the primary antibody of interest overnight at 4° C. The cell-specific antibodies used were rat monoclonal anti-mouse CD31 (1:200; BD Pharmingen), rat monoclonal anti-mouse MECA-32 (1:200; BD Pharmingen), rabbit polyclonal anti-mouse NG2 (1:200; Chemicon), and rat monoclonal anti-mouse PDGFRb (CD140b) (1:200; eBioscience). The corresponding secondary antibodies; Cy-3 donkey anti-rabbit IgG and Rhodamine Red donkey anti-rat IgG (Jackson ImmunoResearch), were used at a 1:200 dilution and incubated for one hour at room temperature. The following species-matched immunoglobulins were used as negative controls; rabbit IgG (Vector Laboratories) and rat IgG (Jackson ImmunoResearch) at a 1:200 dilution. The slides were washed several times in 1×PBS and mounted in Vectashield Mounting Medium with DAPI (Vector Laboratories). Hematoxylin and eosin (H&E) staining was performed for histological grading of adjacent sections by standard methods, and lesions were graded as previously described (Lopez and Hanahan, 2002).
In contrast, no binding above background was detected toward cells transfected with vascular endothelial growth factor receptor 2 (VEGFR2) (FIG. 5A).

The target in assay [2] is PDGFRβ overexpressed on transfected 293T cells. Kind of assay: phage binding to transfected 293T cells, 2 hours at 4° C., bound phage counted by plaque assay.

Where no end group is shown, it is not given here.

T1 sequence (P05622 32-1098): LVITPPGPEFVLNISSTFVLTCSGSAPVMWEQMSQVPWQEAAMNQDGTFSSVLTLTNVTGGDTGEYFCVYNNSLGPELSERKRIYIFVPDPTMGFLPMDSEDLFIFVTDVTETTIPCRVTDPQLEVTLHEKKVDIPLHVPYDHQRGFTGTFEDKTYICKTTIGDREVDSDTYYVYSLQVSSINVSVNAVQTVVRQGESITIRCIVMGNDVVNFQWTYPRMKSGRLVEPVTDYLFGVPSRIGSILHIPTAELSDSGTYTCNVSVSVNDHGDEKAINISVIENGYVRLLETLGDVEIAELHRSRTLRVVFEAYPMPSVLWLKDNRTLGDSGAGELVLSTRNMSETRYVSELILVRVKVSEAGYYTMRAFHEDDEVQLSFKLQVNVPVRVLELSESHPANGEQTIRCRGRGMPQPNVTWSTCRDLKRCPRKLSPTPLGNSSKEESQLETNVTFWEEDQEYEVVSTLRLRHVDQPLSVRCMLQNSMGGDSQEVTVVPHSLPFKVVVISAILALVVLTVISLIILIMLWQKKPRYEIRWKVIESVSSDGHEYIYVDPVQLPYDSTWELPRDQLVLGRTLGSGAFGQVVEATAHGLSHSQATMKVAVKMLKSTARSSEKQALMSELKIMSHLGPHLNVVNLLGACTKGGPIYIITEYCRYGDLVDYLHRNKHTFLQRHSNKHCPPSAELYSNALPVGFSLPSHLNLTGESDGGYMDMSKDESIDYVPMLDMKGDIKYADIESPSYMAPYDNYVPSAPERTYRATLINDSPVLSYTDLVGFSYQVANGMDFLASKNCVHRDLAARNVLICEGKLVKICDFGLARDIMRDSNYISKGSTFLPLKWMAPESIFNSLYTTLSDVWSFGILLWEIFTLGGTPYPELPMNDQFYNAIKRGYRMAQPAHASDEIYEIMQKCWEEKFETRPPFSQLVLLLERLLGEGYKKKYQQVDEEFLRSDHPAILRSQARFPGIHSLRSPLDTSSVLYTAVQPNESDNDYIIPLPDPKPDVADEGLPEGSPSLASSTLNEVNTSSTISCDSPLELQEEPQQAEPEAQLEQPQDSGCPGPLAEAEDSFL

B1: fluorescein-conjugated RGR peptide (CRGRRST) (peptide)
peptide: CRGRRST
modifications: also: fluorescein-conjugated (site of attachment not given here)
notes: Synthetic linear peptide made by Fmoc chemistry and injected intravenously into RIP1-Tag2 mice; also called RGR-FITC; fluorescein-conjugated CRGRRST peptide
Consider B1, for which the binding result in assay [1] is given as “binds”.

With CRGRRST [RGR phage (T7 phage displaying the RGR peptide CRGRRST)], the fold binding to PDGFRβ-transfected cells over non-transfected cells in assay [2] was 20 fold.
